Results taken from article PMC11865311.

Molecular target: CD11b (alpha subunit of the Mac-1 receptor, CD11b/CD18) (human (endogenous in neutrophils)) (UniProt P11215)

**Q.** With “Candida albicans secreted aspartyl protease 6 (Sap6) (from UniProt Q5AC08 19-418) (enzyme)” as the substance, how does the ROS production after PMA in neutrophils incubated with Sap6 1200 ng/ml with CD11b blocked by an antibody, relative to PMA-stimulated control neutrophils (50% without the blockade) read?
**A.** The ROS production after PMA in neutrophils incubated with Sap6 1200 ng/ml with CD11b blocked by an antibody, relative to PMA-stimulated control neutrophils (50% without the blockade) was 85%.
